Experimental data reported in patent publication US20110301073, “Novel DNA-binding proteins and uses thereof” (Sangamo BioSciences, Inc., published 2011).

Columns and labels:
[1] = biological target: T1, TALE13 +28 FokI (Xanthomonas axonopodis (engineered)); assay: cleavage_in_vitro; two inverted sites, 16 bp gap; NEB Buffer 2, 37 C; conditions: tags: FLAG, NLS, chain copies: 2
T1 chain: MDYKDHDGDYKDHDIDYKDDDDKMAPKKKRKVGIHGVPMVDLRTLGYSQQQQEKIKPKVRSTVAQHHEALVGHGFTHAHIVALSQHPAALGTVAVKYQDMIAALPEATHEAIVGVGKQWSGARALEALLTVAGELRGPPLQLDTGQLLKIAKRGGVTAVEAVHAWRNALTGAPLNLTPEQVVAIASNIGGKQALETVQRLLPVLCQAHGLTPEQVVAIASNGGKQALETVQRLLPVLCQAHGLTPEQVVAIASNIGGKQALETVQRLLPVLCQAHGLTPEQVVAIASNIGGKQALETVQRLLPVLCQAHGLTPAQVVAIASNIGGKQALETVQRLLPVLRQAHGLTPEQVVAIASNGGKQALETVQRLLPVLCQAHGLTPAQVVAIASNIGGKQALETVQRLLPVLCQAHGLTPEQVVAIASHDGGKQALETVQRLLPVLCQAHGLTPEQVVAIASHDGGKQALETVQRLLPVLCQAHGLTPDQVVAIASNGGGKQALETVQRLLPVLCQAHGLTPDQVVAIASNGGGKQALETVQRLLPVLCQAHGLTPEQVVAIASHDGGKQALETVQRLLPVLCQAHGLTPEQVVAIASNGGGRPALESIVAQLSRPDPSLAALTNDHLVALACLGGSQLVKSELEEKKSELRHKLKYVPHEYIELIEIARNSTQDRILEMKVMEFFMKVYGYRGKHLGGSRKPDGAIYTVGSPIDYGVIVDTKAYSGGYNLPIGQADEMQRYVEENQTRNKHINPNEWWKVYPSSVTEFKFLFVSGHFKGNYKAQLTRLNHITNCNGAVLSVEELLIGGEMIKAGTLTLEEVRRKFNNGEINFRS
Experimental: (§1) TALE domain fusions were also constructed using Fold cleavage half domains. For these examples, wild type FokI half cleavage domains were used so that for nuclease activity, a homodimer must be formed from two of the fusions. For these fusions, the TALE13 DNA binding domain was fused to each FokI half domain by cloning the TALE DNA binding domain into a plasmid adjacent to FokI-specifying sequence. In addition, various linkers were tested for use between the DNA binding domain and the nuclease domain. Linkers L2 and L8 were used which are as follows: L2=GS (SEQ ID NO:71) and L8=[…] (SEQ ID NO:72). The target sites were cloned into a TOPO2.1 target vector (Invitrogen) with varying gap spacings between each target binding site such that the two were separated from each other by 2 to 22 bp. PCR amplification of an approximately 1 kb region of the target vector was done to generate the target DNAs. The TALE DNA binding domains were also truncated as described previously, and are described using the same nomenclature as described above in Examples 2 and 6. The TALE domain nuclease fusion clones were expressed in the TNT Rabbit Reticulocyte Lysate system by adding 5 μL of water containing 250 nanograms of the nuclease fusion clone plasmid to 20 μL of lysate and incubating at 30° C. for 90 minutes.
(§2) The lysate was then used to cleave the target DNAs as follows: 2.5 μL of lysate were added to a 50 μL reaction containing 50 nanograms of PCR-amplified target DNA and a final Buffer 2 (New England Biolabs) concentration of 1×. The cleavage reaction was for one hour at 37° C., followed by a 20 minute heat inactivation stage at 65° C. The reaction was then centrifuged at high speed to separate the target DNA from the lysate, causing the lysate to condense into a pellet in the reaction well. The DNA-containing supernatant was pipetted off and run on an ethidium bromide-stained agarose gel (Invitrogen) to separate intact target DNA from cleaved target DNA. The agarose gel was then analyzed using AlphaEaseFC (Alpha Innotech) software to measure the amount of target DNA present in the large uncleaved DNA band and the two smaller DNA bands resulting from a single cleavage event of the target DNA. The percentage of cleaved DNA out of the total amount of target DNA loaded into the gel represents the percent cleavage in each reaction.

[2] = biological target: T2, TALE13 +79 FokI (Xanthomonas axonopodis (engineered)); assay: as above; conditions: tags: FLAG, NLS, chain copies: 2
T2 chain: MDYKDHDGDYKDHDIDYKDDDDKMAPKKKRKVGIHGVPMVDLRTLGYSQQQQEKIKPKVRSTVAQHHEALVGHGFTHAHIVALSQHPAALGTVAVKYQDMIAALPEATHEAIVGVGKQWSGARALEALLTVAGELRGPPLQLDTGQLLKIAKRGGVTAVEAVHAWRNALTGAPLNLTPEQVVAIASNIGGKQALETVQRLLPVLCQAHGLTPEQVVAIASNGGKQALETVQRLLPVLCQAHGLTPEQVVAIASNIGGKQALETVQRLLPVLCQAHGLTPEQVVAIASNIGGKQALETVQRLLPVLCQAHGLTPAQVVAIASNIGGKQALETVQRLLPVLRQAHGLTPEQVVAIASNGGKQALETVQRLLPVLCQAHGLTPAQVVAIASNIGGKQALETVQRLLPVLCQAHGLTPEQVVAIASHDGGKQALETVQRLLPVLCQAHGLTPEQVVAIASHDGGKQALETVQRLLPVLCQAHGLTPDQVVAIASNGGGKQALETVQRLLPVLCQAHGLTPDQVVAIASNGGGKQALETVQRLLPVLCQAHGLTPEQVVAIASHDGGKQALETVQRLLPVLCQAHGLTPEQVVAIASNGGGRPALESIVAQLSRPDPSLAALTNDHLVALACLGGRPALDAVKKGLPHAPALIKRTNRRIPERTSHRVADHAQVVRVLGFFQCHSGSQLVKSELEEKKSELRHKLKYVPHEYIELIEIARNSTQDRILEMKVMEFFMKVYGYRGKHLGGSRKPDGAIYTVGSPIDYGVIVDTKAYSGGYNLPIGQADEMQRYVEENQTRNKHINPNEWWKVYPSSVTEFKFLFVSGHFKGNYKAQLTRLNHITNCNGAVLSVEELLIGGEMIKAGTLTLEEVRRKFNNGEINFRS
Experimental: as §1, §2

B1: TALE13 target (dsDNA)
DNA 1: TATAAATACCTTCT
DNA 2: AGAAGGTATTTATA
With B1 as the binder, how does the activity [1] read?
The activity was 100 % cleavage.

And the activity [2]?
The activity was 56 % cleavage.
